According to patent US20240002495A1 (MITSUBISHI TANABE PHARMA, published 2024):
Where no end group is shown, it is not given here.

What was measured:
[1] = target: T1, recombinant human IL-33 protein (residues 112 to 270) (ILC0701, ATGen Co. Ltd) (human, UniProt O95760 112-270); assay: cell-based or functional assay
T1 sequence: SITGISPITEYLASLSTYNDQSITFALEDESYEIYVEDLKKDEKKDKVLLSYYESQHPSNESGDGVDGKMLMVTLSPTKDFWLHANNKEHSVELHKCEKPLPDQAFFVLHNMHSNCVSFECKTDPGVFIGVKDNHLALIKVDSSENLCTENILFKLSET

[2] = target: T1, recombinant human IL-33 protein …; assay: KinExA in PBS, neutral-purified IgG
Protocol: Each test antibody (IgG) (“antibody (IgG)” indicates an antibody having a molecular form of IgG; hereinafter, the same representation is used) was analyzed to confirm the affinity with the human IL-33 protein by measuring dissociation constant (Kd) between each test antibody and the human IL-33 protein in PBS by kinetic exclusion assay (KinExA) (KinExA3200, available from Sapidyne Instruments, Inc.). Mixture samples of a test antibody and a human IL-33 protein (ILC0701, available from ATGen Co. Ltd) were prepared. The human IL-33 protein was titrated to a constant concentration of test antibody (final concentration: several tens of pM to several hundreds of pM) over a wide concentration range of the human IL-33 protein (so that it covered the concentrations of the human IL-33 protein resulting from 12-step serial doubling dilutions, i.e. one- to 2048-fold, with the upper limit of final concentration set to several nM to several tens of nM). The mixture samples were incubated at a room temperature until the antigen-antibody reaction reached equilibrium. After the reaction reached equilibrium, the percentage of free anti-IL-33 antibody in each sample was analyzed using KinExA3200. The values of Kd were calculated by fitting the plot of percentages of anti-IL-33 antibody not bound to the human IL-33 protein (vertical axis) and concentrations of antigen (horizontal axis) to a theoretical formula, using a KinExA data analysis program (KinExA Pro Software v3.5.3, available from Sapidyne Instruments, Inc.). Beads for capturing the anti-IL-33 antibody were prepared by suspending 50 mg of Azlactone beads (Sapidyne) in 1 mL of coating solution (10 μg/mL human IL-33 protein (ILC0701, available from ATGen Co. Ltd), 50 mM sodium carbonate at pH of 9.6) and incubating the solution at a room temperature for one hour. The antibody for detection used was anti-human F(ab)′2-DyLight649 (Jackson, 309-495-006).

[3] = target: T1, recombinant human IL-33 protein …; assay: KinExA in PBS, alkaline-purified IgG
Protocol: (§1) Mixture samples of a test antibody and a human IL-33 protein (ILC0701, available from ATGen Co. Ltd) were prepared. The human IL-33 protein was titrated to a constant concentration of test antibody (final concentration: several tens of pM to several hundreds of pM) over a wide concentration range of the human IL-33 protein (so that it covered the concentrations of the human IL-33 protein resulting from 12-step serial doubling dilutions, i.e. one- to 2048-fold, with the upper limit of final concentration set to several nM to several tens of nM). The mixture samples were incubated at a room temperature until the antigen-antibody reaction reached equilibrium. After the reaction reached equilibrium, the percentage of free anti-IL-33 antibody in each sample was analyzed using KinExA3200. The values of Kd were calculated by fitting the plot of percentages of anti-IL-33 antibody not bound to the human IL-33 protein (vertical axis) and concentrations of antigen (horizontal axis) to a theoretical formula, using a KinExA data analysis program (KinExA Pro Software v3.5.3, available from Sapidyne Instruments, Inc.). Beads for capturing the anti-IL-33 antibody were prepared by suspending 50 mg of Azlactone beads (Sapidyne) in 1 mL of coating solution (10 μg/mL human IL-33 protein (ILC0701, available from ATGen Co. Ltd), 50 mM sodium carbonate at pH of 9.6) and incubating the solution at a room temperature for one hour. The antibody for detection used was anti-human F(ab)′2-DyLight649 (Jackson, 309-495-006).

[4] = target: T1, recombinant human IL-33 protein …; assay: SPR (Biacore T200), human IL-33 (ILC0701) immobilized on CM5, Calibration Free Concentration Analysis of the preserved antibody against a control-preserved sample
Protocol: Each alkaline-purified antibody was dissolved in a citrate buffer (50 mM citric acid; 150 mM NaCl (pH: 6.3)) at a concentration of about 10 mg/mL, and was preserved at a temperature of 40° C. for four weeks, to evaluate the preservation stability of each test antibody (IgG). For evaluation of the monomer purity of each antibody after the preservation, monomer purity was measured by size exclusion chromatography analysis (SEC) and microchip capillary SDS electrophoresis (mCE-SDS), and antigen-binding activity was measured by surface plasmon resonance.
In order to confirm the presence of the antigen-binding ability after the preservation, the antigen-binding activity was measured with a surface plasmon resonance system, Biacore T200 (available from GE Healthcare). A human IL-33 protein (ILC0701, available from ATGen Co. Ltd) was immobilized onto a Sensor Chip CM5 (GE Healthcare) (the amount of immobilized protein was about 3000 to 6000 RU) with Amine Coupling Kit (GE Healthcare). Each preserved antibody solution was then diluted to 10-fold with a citric buffer (50 mM citric acid, 150 mM NaCl (pH: 6.3)), and the resulting solution was analyzed to measure the total protein concentration in the solution, using a microvolume spectrophotometer, Astragene II (Astranet Systems, Ltd.) (protein concentration: about 1 mg/mL). The antibody solution after the measurement of the total protein concentration was diluted to 1000-fold with HBS-EP buffer (10 mM HEPES, 150 mM NaCl, 3 mM EDTA, 0.05% (v/v) Surfactant P20 (at pH of 7.4)). The analyte was thereby prepared. The measurement temperature was 25° C. Each analyte was added for 36 seconds at two flow rates of 5 μL/min and 100 μL/min to obtain sensorgrams of the association phase. The sensorgrams were then analyzed by Calibration Free Concentration Analysis using a data analysis program (GE Healthcare, Biacore T200 Evaluation Software v1.0) to determine the concentration of the antibody having antigen-binding activity. As control, each test antibody after preservation at a temperature of 4° C. for four weeks was also analyzed to confirm the antigen-binding activity, to calculate the ratio of antigen-binding activity of each test antibody after the preservation at a temperature of 40° C. for four weeks.

[5] = target: T2, DQSITFALEDESYEIYVEDL (PEP14) (human, not fully specified); assay: KinExA, alkaline-purified IgG, peptide
T2 peptide: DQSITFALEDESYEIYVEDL
Protocol: (§2) The mixture samples were incubated at a room temperature until the antigen-antibody reaction reached equilibrium. After the reaction reached equilibrium, the percentage of free anti-IL-33 antibody in each sample was analyzed using KinExA3200. The values of Kd were calculated by fitting the plot of percentages of anti-IL-33 antibody not bound to the human IL-33 protein (vertical axis) and concentrations of antigen (horizontal axis) to a theoretical formula, using a KinExA data analysis program (KinExA Pro Software v3.5.3, available from Sapidyne Instruments, Inc.). Beads for capturing the anti-IL-33 antibody were prepared by suspending 50 mg of Azlactone beads (Sapidyne) in 1 mL of coating solution (10 μg/mL human IL-33 protein (ILC0701, available from ATGen Co. Ltd), 50 mM sodium carbonate at pH of 9.6) and incubating the solution at a room temperature for one hour. The antibody for detection used was anti-human F(ab)′2-DyLight649 (Jackson, 309-495-006).
(§3) The anti-IL-33 monoclonal antibodies A10-1C04 and A25-3H04 bound to the epitope PEP14 as described in the Example 1. […] These peptides were synthesized, and the affinity with the alkali-purified antibodies was calculated as Kd by the KinExA experiment as in Example 9 (Table 14).

[6] = target: T3, LEDESYEIYV (human, not fully specified (N-terminus)); assay: KinExA, alkaline-purified IgG, peptide
T3 construct: synthetic peptide
T3 peptide: LEDESYEIYV
Protocol: as §2, §3

[7] = target: T4, EDESYEIYV (human, not fully specified (N-terminus)); assay: KinExA, alkaline-purified IgG, peptide
T4 construct: synthetic peptide
T4 peptide: EDESYEIYV
Protocol: as §2, §3

[8] = target: T5, full-length human IL-33 protein (human, UniProt O95760 1-270); assay: KinExA in PBS, alkaline-purified IgG
T5 construct: also called Human IL-33 (Full-Length)
T5 sequence: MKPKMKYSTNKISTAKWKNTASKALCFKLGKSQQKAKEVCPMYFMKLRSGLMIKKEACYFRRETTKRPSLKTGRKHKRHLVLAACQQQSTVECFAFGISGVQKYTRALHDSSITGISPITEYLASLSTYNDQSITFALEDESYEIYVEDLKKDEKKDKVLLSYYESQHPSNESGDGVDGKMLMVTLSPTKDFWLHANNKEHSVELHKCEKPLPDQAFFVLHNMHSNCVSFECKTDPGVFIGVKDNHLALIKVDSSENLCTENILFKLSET
Protocol: as §1

B1: A23-1A05 (IgG) (antibody, V domains shown)
VH: EVQLLESGGGLVQPGGSLRLSCAASGFTFSNYYMHWVRQAPGKGLEWVSSISARSRYHYYADSVKGRFTISRDNSKNTLYLQMNSLRAEDTAVYYCARLATRHNAFDIWGQGTLVTVSS
VL: QSVLTQPPSASGTPGQRVTISCSGSSSNIGNNAVSWYQQLPGTAPKLLIYASNMRVIGVPDRFSGSKSGTSASLAISGLRSEDEADYYCGAWDDSQKALVFGGGTKLTVL
notes: tested as neutral-purified and as alkaline-purified antibody; also called V8; IGN8
- IC50 of inhibition of IL-6 production by HUVEC (alkaline-purified IgG, human IL-33 100 ng/mL) [1]: 0.27 µg/mL
- inhibition of IFN-γ production by human PBMC (alkaline-purified IgG 10 ug/mL, IL-33 10 ng/mL, IL-12 10 ng/mL) [1]: 97.5%
- inhibition of production of IL-5 and IL-13 by KU-812 cells (alkaline-purified IgG 1 ug/mL; IL-33 3 ng/mL with IL-3 and C5a) [1]: ≥ 50%
- percentage of inhibition (%) of IL-6 production by HUVEC (neutral-purified IgG 1 ug/mL, IL-33 100 ng/mL) [1]: 74%
- Kd [2]: 231 pM
- Kd [3]: 195 pM
- % Active IgG (antigen binding activity after preservation at 40 C for 4 W) [4]: 102%

B2: A25-3H04 (IgG) (antibody, V domains shown)
VH: EVQLLESGGGLVQPGGSLRLSCAASGFTFSRYYMHWVRQAPGKGLEWVSSISAQSSHIYYADSVEGRFTISRDNSKNTLYLQMNSLRAEDTAVYYCARLATRQNAFDIWGQGTLVTVSS
VL: QSVLTQPPSASGTPGQRVTISCSGSSSNIGRNAVNWYQQLPGTAPKLLIYASNMRRSGVPDRFSGSKSGTSASLAISGLRSEDEADYYCSAWDDSQKVVVFGGGTKLTVL
notes: tested as neutral-purified and as alkaline-purified antibody; also called V17; IGN17
- IC50 of inhibition of IL-6 production by HUVEC (alkaline-purified IgG, human IL-33 100 ng/mL) [1]: 0.21 µg/mL
- inhibition of IFN-γ production by human PBMC (alkaline-purified IgG 10 ug/mL, IL-33 10 ng/mL, IL-12 10 ng/mL) [1]: 97.9%
- inhibition of production of IL-5 and IL-13 by KU-812 cells (alkaline-purified IgG 1 ug/mL; IL-33 3 ng/mL with IL-3 and C5a) [1]: ≥ 50%
- percentage of inhibition (%) of IL-6 production by HUVEC (neutral-purified IgG 1 ug/mL, IL-33 100 ng/mL) [1]: 97%
- Kd [2]: 5.38 pM
- Kd [3]: 7.7 pM
- Kd [5]: 1.5 pM
- Kd [6]: 11 nM
- Kd [7]: 301 nM
- % Active IgG (antigen binding activity after preservation at 40 C for 4 W) [4]: 102%

B3: A25-2C02 (IgG) (antibody, V domains shown)
VH: EVQLLESGGGLVQPGGSLRLSCAASGFTFSNYYMHWVRQAPGKGLEWVSSISARSSYIYYADSVKGRFTISRDNSKNTLYLQMNSLRAEDTAVYYCARLATRNNAFDIWGQGTLVTVSS
VL: QSVLTQPPSASGTPGQRVTISCSGSSSNIGRNAVNWYQQLPGTAPKLLIYASNMRVSGVPDRFSGSKSGTSASLAISGLRSEDEADYYCWAWDDSQKVGVFGGGTKLTVL
notes: tested as neutral-purified and as alkaline-purified antibody; also called V15; IGN15
- IC50 of inhibition of IL-6 production by HUVEC (alkaline-purified IgG, human IL-33 100 ng/mL) [1]: 0.19 µg/mL
- inhibition of IFN-γ production by human PBMC (alkaline-purified IgG 10 ug/mL, IL-33 10 ng/mL, IL-12 10 ng/mL) [1]: 98.8%
- inhibition of production of IL-5 and IL-13 by KU-812 cells (alkaline-purified IgG 1 ug/mL; IL-33 3 ng/mL with IL-3 and C5a) [1]: ≥ 50%
- percentage of inhibition (%) of IL-6 production by HUVEC (neutral-purified IgG 1 ug/mL, IL-33 100 ng/mL) [1]: 96%
- Kd [2]: 0.72 pM
- Kd [3]: 0.7 pM
- % Active IgG (antigen binding activity after preservation at 40 C for 4 W) [4]: 100%

B4: A26-1F02 (IgG) (antibody, V domains shown)
VH: EVQLLESGGGLVQPGGSLRLSCAASGFTFSNYYMHWVRQAPGKGLEWVSSISARSSYLYYADSVKGRFTISRDNSKNTLYLQMNSLRAEDTAVYYCARLATRHVAFDIWGQGTLVTVSS
VL: QSVLTQPPSASGTPGQRVTISCSGSSSNIGNNAVNWYQQLPGTAPKLLIYASNMRRPGVPDRFSGSKSGTSASLAISGLRSEDEADYYCEAWDDSQKAVVFGGGTKLTVL
notes: tested as neutral-purified and as alkaline-purified antibody; also called V18; IGN18
- IC50 of inhibition of IL-6 production by HUVEC (alkaline-purified IgG, human IL-33 100 ng/mL) [1]: 0.23 µg/mL
- inhibition of IFN-γ production by human PBMC (alkaline-purified IgG 10 ug/mL, IL-33 10 ng/mL, IL-12 10 ng/mL) [1]: 98.2%
- inhibition of production of IL-5 and IL-13 by KU-812 cells (alkaline-purified IgG 1 ug/mL; IL-33 3 ng/mL with IL-3 and C5a) [1]: ≥ 50%
- percentage of inhibition (%) of IL-6 production by HUVEC (neutral-purified IgG 1 ug/mL, IL-33 100 ng/mL) [1]: 96%
- Kd [2]: 10.8 pM
- Kd [3]: 5.3 pM
- Kd [8]: 0.0104 nM
- % Active IgG (antigen binding activity after preservation at 40 C for 4 W) [4]: 101%
